The text below walks through data of publication PMC9241633.

This series deals with KbvR (Klebsiella pneumoniae). Put plainly: MST. The following applies: MST: constant labeled KbvR, 2-fold DNA dilution series (16 samples), 30 min incubation at room temperature, measured at 30 C, 80% excitation power, medium LED ….

For orientation: Kd means the equilibrium constant for the complex coming apart. On to ompK36 promoter region, for which the Kd was found to be 0.45 µM.
